Reference: patent US20240091318A1, “COMBINATION THERAPY COMPRISING LONG ACTING GLP-1/GLUCAGON AND NPY2 RECEPTOR AGONISTS” (Boehringer Ingelheim International GmbH, priority 2022, published 2024)
Values belong to the molecule of their own block, whether it stands above or below them. Numbered stars: 1 amine (or outer) side, 2 acyl side, 3 side chain; on linkers, the order of the positions; unused ones are H or OH. Side chains are listed from the residue outwards. * marks the point of attachment. C18 diacid = O=C(O)CCCCCCCCCCCCCCCCC(=O)*; γGlu = O=C(O)[C@H](CCC(=O)[*:2])N[*:1]; Isovaleryl = CC(C)CC(=O)*; AEEA = NCCOCCOCC(=O)O; Ahx = NCCCCCC(=O)O

Key:
[1] = Effect on acute food intake (AFI) in normal NMRI mice; assay type: in vivo; settings: male NMRI mice, 10 nmol/kg s.c. once, % vs. vehicle group
Protocol: Effect on Acute Food Intake in Normal NMRI Mice
Male NMRI mice were obtained from Charles River (Charles River, Research Models & Services Germany GmbH) or from JanVier (JanVier Labs, France) at 5 weeks of age. […] Room temperature was controlled to 21° C.±1° C., with 60%±20% humidity.
Animals were transferred 5-7 days before the start of the study to a real-time food intake monitoring system, HM-2 system (MBRose, Denmark), to allow acclimatization to experimental conditions. As the animals were uniquely identified with microchips, each individual animal was identified by its microchip upon entry and exit from the food channel. Randomization of the mice for each study group (n=7-8) was based on body weight measured the day before the start of the study. A vehicle-treated (50 mM phosphate buffer pH7 with 5% Mannitol) group was included in each experiment. Six hours before the start of the night phase animals were fasted. One hour before the dark phase animals were dosed once subcutaneously (10 nmol/kg) with test peptide. […] The food intake of the treated groups was normalized (in %) to the average food intake of the group receiving vehicle (Table 1). Statistical significance was evaluated using One-way analysis of variance with Turkey's multiple comparison test. P<0.05 was considered statistically significant.

[2] = Effect on body weight loss and food intake in wildtype Diet Induced Obesity (DIO) mice; assay type: in vivo; settings: 30 nmol/kg s.c. once daily, 5 day
Excerpt: Effect on Body Weight Loss in Wildtype Diet Induced Obesity Mice
Male C57BL6/J pre-fed on 60% high fat diet were obtained from The Jackson Laboratories at >16 weeks of age. Upon arrival of the Diet Induced Obesity (DIO) mice, the mice where single housed to obtain accurate and individual food intake measurements of each animal and assigned an animal number. […] During the entire study animals had ad libitum access to food and water.
Before start of treatment a stratified randomization was performed based on the body weight measured in week −1 prior study start. At study start the age of mice was around 20 weeks. Bodyweight and food intake were measured daily before compound administration. Animals were dosed around one hour before start of the night phase by subcutaneous injection of 30 nmol/kg once daily for 5 till 28 days depending on the experiment. Control animals were dosed by subcutaneous injection daily with vehicle.

human NPY2 receptor = molecular target: T1, human NPY2 receptor (human, UniProt P49146); test: radioligand binding competition (125I-PYY(1-36)) on human NPY2R membranes, filtration
T1 sequence: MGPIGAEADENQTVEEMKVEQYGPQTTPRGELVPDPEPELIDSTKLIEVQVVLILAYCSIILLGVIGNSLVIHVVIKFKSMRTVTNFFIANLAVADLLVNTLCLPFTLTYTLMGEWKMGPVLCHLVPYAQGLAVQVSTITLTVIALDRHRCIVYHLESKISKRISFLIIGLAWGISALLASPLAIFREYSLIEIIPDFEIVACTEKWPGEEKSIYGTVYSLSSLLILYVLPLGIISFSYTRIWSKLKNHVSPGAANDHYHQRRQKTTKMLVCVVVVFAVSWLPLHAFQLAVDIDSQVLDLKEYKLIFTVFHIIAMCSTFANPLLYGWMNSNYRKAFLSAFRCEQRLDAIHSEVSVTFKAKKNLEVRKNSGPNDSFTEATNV
Protocol: The filtration RLB assay was carried out in 96-well plates in a final volume of 100 μl per well. Freeze-dried test peptides were dissolved in 100% dimethyl sulfoxide (DMSO) to stock solutions of 1 mM and serial dilutions were performed in assay buffer (50 mM HEPES, 5 mM MgCl₂, 1 mM CaCl₂, pH 7.4) containing 0.2% ovalbumin. […] Subsequently, 10 μl of human ¹²⁵I-PYY(1-36) (Perkin Elmer) in assay buffer containing 0.2% ovalbumin was added to wells to give a final concentration of 0.02 nM. Next, 80 μL membranes (HTS066M, ChemiSCREEN™ Human Neuropeptide Y2 Receptor Membrane Preparation, CHEMICON) were added to each well to give a final protein concentration of 0.5 μg/well. The plates were sealed and incubated at room temperature for 2 hours in a plate shaker set at 400 rpm. The incubation was stopped by vacuum filtration onto 0.5% poly-ethylene amine (PEI) presoaked GF/C filters using a 96-well FilterMate™ harvester (Perkin Elmer) followed by four washes with 300 μl/well ice-cold wash buffer (50 mM HEPES, 500 mM NaCl, pH7.4). Filter plates were then dried for 60 min at room temperature and the bottom of the plates was sealed with backing tape UniFilter-96. Finally, 50 μl/well scintillation counter cocktail (Microscint20, Packard) was added, and the radioactivity was counted in the Packard TopCount NXT scintillation counter. IC₅₀ values (the half maximal inhibitory concentration of the agonist) were calculated by nonlinear regression analysis of sigmoidal dose-response curves.

Ki (human NPY2 receptor): 1.96 nM
Molecule: Isovaleryl-APEK([AEEA-AEEA-γGlu-C18 diacid])PEEDATPEELQKYYVSLRHYYNWLTRQRY-NH2 [Compound H]

Ki (human NPY2 receptor): 0.46 nM
B3: Reference 3 (peptide)
peptide: Isovaleryl-RPEKPEEDASPEELQRYYVSLRHYYNWLTRQRY-NH2
modifications: not fully specified (residue 4); printed as iVal-RPEK(C18DA-gGlu-OEG-OEG)PEEDASPEELQRYYVSLRHYYNWLTRQRY-NH2

Ki (human NPY2 receptor): 0.74 nM
B4: Reference 1 (peptide)
peptide: Isovaleryl-APEKPEEDASPEEIQQYYVSLRHYYNWLTRQRY-NH2
modifications: not fully specified (residue 4); printed as iVal-APEK(C18DA-gGlu-OEG-OEG)PEEDASPEEIQQYYVSLRHYYNWLTRQRY-NH2

Ki (human NPY2 receptor): 0.24 nM
Molecule: Isovaleryl-APEK([AEEA-AEEA-γGlu-C18 diacid])PEADASPEEIQRYYVSLRHYYNWLTRQRY-NH2 [Compound J]

Ki (human NPY2 receptor): 0.4 nM
B5: Reference 2 (peptide)
peptide: APEKPGEDASPEELQRYYVSLRHYYHWLTRQRY
modifications: not fully specified; N-terminal iVal (3-methylbutanoyl); the Lys (4th residue) carries C18DA-gGlu-OEG-OEG; C-terminal amide (-NH2)

Ki (human NPY2 receptor): 1.04 nM
Molecule: Isovaleryl-APEK([Ahx-γGlu-C18 diacid])PEADATPEEIQRYYVSLRHYYNWLTRQRY-NH2 [Compound K]

More lines, now with the values behind:

Molecule: CC[C@H](C)[C@H](NC(=O)[C@H](CCC(=O)O)NC(=O)[C@H](CCC(=O)O)NC(=O)[C@@H]1CCCN1C(=O)[C@H](CO)NC(=O)[C@H](C)NC(=O)[C@H](CC(=O)O)NC(=O)[C@H](C)NC(=O)[C@H](CCC(=O)O)NC(=O)[C@@H]1CCCN1C(=O)[C@H](CCCCNC(=O)COCCOCCNC(=O)COCCOCCNC(=O)CC[C@H](NC(=O)CCCCCCCCCCCCCCCCC(=O)O)C(=O)O)NC(=O)[C@H](CCC(=O)O)NC(=O)[C@@H]1CCCN1C(=O)[C@H](C)NC(=O)CC(C)C)C(=O)N[C@@H](CCC(N)=O)C(=O)N[C@@H](CCCNC(=N)N)C(=O)N[C@@H](Cc1ccc(O)cc1)C(=O)N[C@@H](Cc1ccc(O)cc1)C(=O)N[C@H](C(=O)N[C@@H](CO)C(=O)N[C@@H](CC(C)C)C(=O)N[C@@H](CCCNC(=N)N)C(=O)N[C@@H](Cc1c[nH]cn1)C(=O)N[C@@H](Cc1ccc(O)cc1)C(=O)N[C@@H](Cc1ccc(O)cc1)C(=O)N[C@@H](CC(N)=O)C(=O)N[C@@H](Cc1c[nH]c2ccccc12)C(=O)N[C@@H](CC(C)C)C(=O)N[C@H](C(=O)N[C@@H](CCCNC(=N)N)C(=O)N[C@@H](CCC(N)=O)C(=O)N[C@@H](CCCNC(=N)N)C(=O)N[C@@H](Cc1ccc(O)cc1)C(N)=O)[C@@H](C)O)C(C)C [Compound J, N{alpha-4}-(3-methylbutanoyl)-N{epsilon-7}-[2-(2-{2-[2-(2-{2-[(4S)-4-carboxy-4-(17-carboxyheptadecanamido)butanamido]ethoxy}ethoxy)acetamido]ethoxy}ethoxy)acetamido]-[4A,7K,9E,10A,17I,18Q,22V,28Y,30W,31L]hPYY(4-36)]
AFI 10 nmol/kg 24 h (food intake normalized to vehicle group) [1]: 29% | BW 30 nmol/kg 5 day (body weight loss vs. vehicle group) [2]: 12.2%

B1: Compound C (peptide)
peptide: Isovaleryl-APAK([AEEA-AEEA-γGlu-C18 diacid])PEEEASPEELQRYYVSLRHYYNWLTRQRY-NH2
SMILES: CC(C)CC(=O)N[C@@H](C)C(=O)N1CCC[C@H]1C(=O)N[C@@H](C)C(=O)N[C@@H](CCCCNC(=O)COCCOCCNC(=O)COCCOCCNC(=O)CC[C@H](NC(=O)CCCCCCCCCCCCCCCCC(=O)O)C(=O)O)C(=O)N1CCC[C@H]1C(=O)N[C@@H](CCC(=O)O)C(=O)N[C@@H](CCC(=O)O)C(=O)N[C@@H](CCC(=O)O)C(=O)N[C@@H](C)C(=O)N[C@@H](CO)C(=O)N1CCC[C@H]1C(=O)N[C@@H](CCC(=O)O)C(=O)N[C@@H](CCC(=O)O)C(=O)N[C@@H](CC(C)C)C(=O)N[C@@H](CCC(N)=O)C(=O)N[C@@H](CCCNC(=N)N)C(=O)N[C@@H](Cc1ccc(O)cc1)C(=O)N[C@@H](Cc1ccc(O)cc1)C(=O)N[C@H](C(=O)N[C@@H](CO)C(=O)N[C@@H](CC(C)C)C(=O)N[C@@H](CCCNC(=N)N)C(=O)N[C@@H](Cc1c[nH]cn1)C(=O)N[C@@H](Cc1ccc(O)cc1)C(=O)N[C@@H](Cc1ccc(O)cc1)C(=O)N[C@@H](CC(N)=O)C(=O)N[C@@H](Cc1c[nH]c2ccccc12)C(=O)N[C@@H](CC(C)C)C(=O)N[C@H](C(=O)N[C@@H](CCCNC(=N)N)C(=O)N[C@@H](CCC(N)=O)C(=O)N[C@@H](CCCNC(=N)N)C(=O)N[C@@H](Cc1ccc(O)cc1)C(N)=O)[C@@H](C)O)C(C)C
Ki (human NPY2 receptor): 1.95 nM

B2: Compound F (peptide)
peptide: Isovaleryl-APEK([AEEA-AEEA-γGlu-C18 diacid])PEADATPEELQRYYVSLRHYYNWLTRQRY-NH2
SMILES: CC(C)CC(=O)N[C@@H](C)C(=O)N1CCC[C@H]1C(=O)N[C@@H](CCC(=O)O)C(=O)N[C@@H](CCCCNC(=O)COCCOCCNC(=O)COCCOCCNC(=O)CC[C@H](NC(=O)CCCCCCCCCCCCCCCCC(=O)O)C(=O)O)C(=O)N1CCC[C@H]1C(=O)N[C@@H](CCC(=O)O)C(=O)N[C@@H](C)C(=O)N[C@@H](CC(=O)O)C(=O)N[C@@H](C)C(=O)N[C@H](C(=O)N1CCC[C@H]1C(=O)N[C@@H](CCC(=O)O)C(=O)N[C@@H](CCC(=O)O)C(=O)N[C@@H](CC(C)C)C(=O)N[C@@H](CCC(N)=O)C(=O)N[C@@H](CCCNC(=N)N)C(=O)N[C@@H](Cc1ccc(O)cc1)C(=O)N[C@@H](Cc1ccc(O)cc1)C(=O)N[C@H](C(=O)N[C@@H](CO)C(=O)N[C@@H](CC(C)C)C(=O)N[C@@H](CCCNC(=N)N)C(=O)N[C@@H](Cc1c[nH]cn1)C(=O)N[C@@H](Cc1ccc(O)cc1)C(=O)N[C@@H](Cc1ccc(O)cc1)C(=O)N[C@@H](CC(N)=O)C(=O)N[C@@H](Cc1c[nH]c2ccccc12)C(=O)N[C@@H](CC(C)C)C(=O)N[C@H](C(=O)N[C@@H](CCCNC(=N)N)C(=O)N[C@@H](CCC(N)=O)C(=O)N[C@@H](CCCNC(=N)N)C(=O)N[C@@H](Cc1ccc(O)cc1)C(N)=O)[C@@H](C)O)C(C)C)[C@@H](C)O
Ki (human NPY2 receptor): 0.31 nM

Molecule: Isovaleryl-APAK([AEEA-AEEA-γGlu-C18 diacid])PEEDASPEEIQRYYVSLRHYYNWLTRQRY-NH2 [Compound E]
Ki (human NPY2 receptor): 0.55 nM

Molecule: Isovaleryl-APAK([AEEA-AEEA-γGlu-C18 diacid])PEEDATPEELQRYYVSLRHYYNWLTRQRY-NH2 [Compound A]
Ki (human NPY2 receptor): 0.66 nM
